Changes are numbered by the printed parent chain.
B1: 372_D03 (antibody, V domains shown)
VH: EVQLLESGGGLVQPGGSLRLSCAASGFTFSSYSMNWVRQAPGKGLEWVAGINYNSGYKSYADSVKGRFTISRDNSKNTLYLQMNSLRAEDTAVYYCARGANWHDTALDYWGQGTLVTVSS
VL: DIQMTQSPSSLSASVGDRVTITCRASQSILSYVNWYQQKPGKAPKLVIYAVTSRHSGVPSRFSGSGSGTDFTLTISSLQPEDFATYYCQQSYDSPLTFGGGTKVEIK
notes: Group III
B2: 373_C07 (antibody, V domains shown)
VH: B1 VH with S30D, K58T, A106H
VL: B1 VL with S31T, V33L, V51A, H55A, D93E, S94T
notes: Group III
B3: 373_A11 (antibody, V domains shown)
VH: B1 VH with S31N, S33G, G50N, S55G, K58T, S59G
VL: B1 VL with S31T, V33L, V47L, V51A, H55A, S94L
notes: Group III
B4: 373_F08 (antibody, V domains shown)
VH: B1 VH with A49S, S55G, K58T
VL: B1 VL with S31T, V33L, V47L, V51A, H55A, S94T
notes: Group III
B5: 372_G12 (antibody, V domains shown)
VH: B1 VH with S30D, S55G, K58T, S59G, A106H
VL: B1 VL with S31T, V33L, V51A
notes: Group III
B6: 374_C12 (antibody, V domains shown)
VH: B1 VH with S55G
VL: B1 VL with S31T, V33L, V51A, H55A, Y92D, D93N
notes: Group III
B7: 373_G08 (antibody, V domains shown)
VH: B1 VH with S30D, A49S, G50N, S55G, K58T
VL: B1 VL with S31T, V33L, V47L, V51A, R54L, H55A
notes: Group III
B8: 373_A05 (antibody, V domains shown)
VH: B1 VH with S31D, A49S, A106H
VL: B1 VL with V51A, D93E
notes: Group III
B9: 373_E10 (antibody, V domains shown)
VH: B1 VH with S31D, A49S, S55G, K58T
VL: B1 VL with S31T, V51A, D93E, S94T
notes: Group III
B10: 374_A09 (antibody, V domains shown)
VH: B1 VH with A49S, G50S, S55G, S59G, A106H
VL: B1 VL with S31T, V47L, V51A, R54L, H55A
notes: Group III
B11: 374_D06 (antibody, V domains shown)
VH: B1 VH with A49S, S55G, K58T
VL: B1 VL with V51A, H55A
notes: Group III
B12: 374_D05 (antibody, V domains shown)
VH: B1 VH with S30D, A49S, K58T, S59G, A106H
VL: B1 VL with S31T, V33L, V47L, V51A, H55A, S94T
notes: Group III
B13: 373_C10 (antibody, V domains shown)
VH: B1 VH with S55G, K58T
VL: B1 VL with S31T, V47L, V51A, H55A, S94N
notes: Group III
B14: 373_A03 (antibody, V domains shown)
VH: B1 VH with S31D, G50N, S55G, K58T, S59G
VL: B1 VL with V33L, V51A, H55A, S94N
notes: Group III
B15: 374_B08 (antibody, V domains shown)
VH: B1 VH with S30D, S55G, K58T
VL: B1 VL with L30V, V47L, V51A, D93E, S94L
notes: Group III
B16: 373_F11 (antibody, V domains shown)
VH: B1 VH with S30D, S33G, N35H, A49S, K58T, A106H
VL: B1 VL with L30V, V47L, V51A, H55A, D93N, S94L
notes: Group III
B17: 373_A01 (antibody, V domains shown)
VH: B1 VH with S33G, A49S, G50N, S55G, K58T, S59G, A106H
VL: B1 VL with L30V, S31T, V33L, V51T, H55A, D93N, S94L
notes: Group III
B18: 373_B05 (antibody, V domains shown)
VH: B1 VH with S31D, A49S, G50N, S55G
VL: B1 VL with L30V, S31T, V33L, V51A, H55A, D93S, S94N
notes: Group III
B19: 374_C01 (antibody, V domains shown)
VH: B1 VH with S30D, S33G, A49S
VL: B1 VL with S31T, V33L, V47L, V51A, H55A, D93E, S94T
notes: Group III
B20: 373_D12 (antibody, V domains shown)
VH: B1 VH with S30D, A49S, G50S, S59G, A106H
VL: B1 VL with V47L, V51A, H55A, D93S, S94L
notes: Group III
B21: 372_E01 (antibody, V domains shown)
VH: B1 VH with S30D, S31D, A49S, S55G, S59G
VL: B1 VL with L30V, V33L, V51A
notes: Group III
B22: 373_A12 (antibody, V domains shown)
VH: B1 VH with A49S, G50S, S55G, K58T
VL: B1 VL with S31T, V33L, V51A, H55A, S94T
notes: Group III
B23: 373_D03 (antibody, V domains shown)
VH: B1 VH with A49S, S55G, K58T
VL: B1 VL with L30V, V33L, V47L, V51A, R54L, H55A, S94T
notes: Group III
B24: 373_H07 (antibody, V domains shown)
VH: B1 VH with S55G, K58T, A106H
VL: B1 VL with L30V, S31T, V33L, V47L, V51A, T52S, R54L, H55Q
notes: Group III
B25: 374_B10 (antibody, V domains shown)
VH: B1 VH with A49S, G50S, K58T, A106H
VL: B1 VL with S31T, V51A, R54L, H55A, S94T
notes: Group III
B26: 373_A09 (antibody, V domains shown)
VH: B1 VH with S30D, S55G, K58T
VL: B1 VL with S31T, V33L, V47L, V51A, R54L, H55A, S94T
notes: Group III
B27: 374_D03 (antibody, V domains shown)
VH: B1 VH with S30D, S55G, A106H
VL: B1 VL with L30V, S31T, V33L, V47L, V51A, H55A, S94T
notes: Group III
B28: 373_C03 (antibody, V domains shown)
VH: B1 VH with A49S, S55G
VL: B1 VL with L30V, S31T, V33L, V51A, H55A
notes: Group III
B29: 373_H03 (antibody, V domains shown)
VH: B1 VH with A49S
VL: B1 VL with V33L, V47L, V51T, H55A, D93E, S94N
notes: Group III
B30: 374_B05 (antibody, V domains shown)
VH: B1 VH with S30D, A49S, K58T
VL: B1 VL with L30V, V33L, V47L, V51A, D93E
notes: Group III
B31: 373_F12 (antibody, V domains shown)
VH: B1 VH with A49S, G50N, S55G, K58T, S59G
VL: B1 VL with L30S, S31T, V33L, V51A, H55A, D93E, S94T
notes: Group III
B32: 374_A06 (antibody, V domains shown)
VH: B1 VH with A49S, G50S, K58T, A106H
VL: B1 VL with V33L, V51A, H55A
notes: Group III
B33: 373_B07 (antibody, V domains shown)
VH: B1 VH with S30D, A49S, S55G, K58T
VL: B1 VL with S31T, V51A, H55A, D93E, S94L
notes: Group III
B34: 374_B03 (antibody, V domains shown)
VH: B1 VH with S30D, A49S, S55G, K58T
VL: B1 VL with S31T, V33L, V51A, H55A
notes: Group III
B35: 373_H09 (antibody, V domains shown)
VH: B1 VH with S33G, G50S, A106H
VL: B1 VL with L30I, S31T, V33L, V51A, H55A, Y92D
notes: Group III
B36: 374_C09 (antibody, V domains shown)
VH: B1 VH with S30D, S33G, A49S, G50S, S55G, S59G, A106H
VL: B1 VL with L30V, V33L, V51A, H55A, D93E, S94L
notes: Group III

target: T1, human ACVR2A (human, UniProt P27037 20-135, limits assumed); test: ELISA
T1 construct: coated antigen of the initial ELISA; also called activin receptor, type II A
How it was run: (§1)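 Binding signal was read by ELISA after ACVR2A-specific monoclonal antibodies were tested against human ACVR2A and mouse ACVR2A, with human Fc as the negative control.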
Also: test concentration or dose not given here.

T1 sequence (P27037 20-135 limits assumed): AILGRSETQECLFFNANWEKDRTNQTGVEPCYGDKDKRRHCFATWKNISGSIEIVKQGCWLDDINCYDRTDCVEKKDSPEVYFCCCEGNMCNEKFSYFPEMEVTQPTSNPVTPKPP

optical density [OD] | Binder
3.04 | B1
3.57 | B2
3.76 | B3
3.76 | B4
2.41 | B5
3.67 | B6
3.65 | B7
3.45 | B8
3.72 | B9
3.58 | B10
3.78 | B11
3.43 | B12
3.65 | B13
3.65 | B14
3.6 | B15
3.35 | B16
3.18 | B17
3.59 | B18

optical density [OD] | Binder
2.69 | B19
3.4 | B20
3.34 | B21
3.59 | B22
3.75 | B23
3.25 | B24
3.71 | B25
3.66 | B26
3.3 | B27
3.69 | B28
3.27 | B29
3.68 | B30
3.25 | B31
3.77 | B32
3.66 | B33
3.69 | B34
0.93 | B35
3.43 | B36

target: T2, mouse ACVR2A (mouse, UniProt P27038 20-135, limits assumed); test: ELISA
T2 construct: coated antigen of the initial ELISA
How it was run: as §1

T2 sequence (P27038 20-135 limits assumed): as the sequence (P27037 20-135 limits assumed) above, with K20R, V73I counted along it

optical density [OD] | Binder
3.29 | B1
3.58 | B2
3.68 | B3
3.7 | B4
2.73 | B5
3.33 | B6
3.67 | B7
3.42 | B8
3.64 | B9
3.64 | B10
3.67 | B11
3.56 | B12
3.65 | B13
3.63 | B14
3.63 | B15
3.46 | B16
3.48 | B17
3.53 | B18

optical density [OD] | Binder
2.93 | B19
3.21 | B20
3.34 | B21
3.31 | B22
3.69 | B23
3.27 | B24
3.69 | B25
3.62 | B26
3.48 | B27
3.65 | B28
3.29 | B29
3.65 | B30
3.22 | B31
3.75 | B32
3.61 | B33
3.7 | B34
1.35 | B35
3.51 | B36

target: T3, biotinylated goat anti-human kappa light chain; test: ELISA, positive control
T3 construct: positive control of the ELISA
How it was run: as §1

optical density [OD] | Binder
3.6 | B1
3.3 | B2
3.09 | B3
3.21 | B4
3.5 | B5
3.15 | B6
3.28 | B7
3.03 | B8
3.2 | B9
2.97 | B10
3.12 | B11
3.15 | B12
3.23 | B13
3.08 | B14
3.12 | B15
3.32 | B16
2.95 | B17
3.23 | B18

optical density [OD] | Binder
3.08 | B19
3.21 | B20
3.6 | B21
3.09 | B22
3.18 | B23
3.23 | B24
3 | B25
3.11 | B26
3.02 | B27
3.3 | B28
3.22 | B29
3.16 | B30
3.06 | B31
3 | B32
3.3 | B33
3.07 | B34
3.08 | B35
3.14 | B36

— patent publication US20210380703A1 (RIGEL PHARMACEUTICALS, published 2021)
